Data from patent US20070100561A1, “Crystals of DPP-IV” (priority 2002, published 2007).

Assays:
[1] = target: soluble extracellular domain of human dipeptidyl peptidase IV (sDPP-IV; residues 31-766), glycosylated (human) (UniProt P27487); test: enzyme inhibition, fluorogenic substrate Ala-Pro-7-amido-4-trifluoromethylcoumarin, assay buffer, 25° C., glycosylated sDPP-IV
[2] = target: DPP-IV as immobilized on the CM5 Biacore sensor (human) (UniProt P27487); test: SPR (Biacore), DPP-IV immobilized on CM5, Diprotin A in Hepes running buffer
Chain of DPP-IV as immobilized on the CM5 Biacore sensor (human) (P27487 31-766 limits assumed): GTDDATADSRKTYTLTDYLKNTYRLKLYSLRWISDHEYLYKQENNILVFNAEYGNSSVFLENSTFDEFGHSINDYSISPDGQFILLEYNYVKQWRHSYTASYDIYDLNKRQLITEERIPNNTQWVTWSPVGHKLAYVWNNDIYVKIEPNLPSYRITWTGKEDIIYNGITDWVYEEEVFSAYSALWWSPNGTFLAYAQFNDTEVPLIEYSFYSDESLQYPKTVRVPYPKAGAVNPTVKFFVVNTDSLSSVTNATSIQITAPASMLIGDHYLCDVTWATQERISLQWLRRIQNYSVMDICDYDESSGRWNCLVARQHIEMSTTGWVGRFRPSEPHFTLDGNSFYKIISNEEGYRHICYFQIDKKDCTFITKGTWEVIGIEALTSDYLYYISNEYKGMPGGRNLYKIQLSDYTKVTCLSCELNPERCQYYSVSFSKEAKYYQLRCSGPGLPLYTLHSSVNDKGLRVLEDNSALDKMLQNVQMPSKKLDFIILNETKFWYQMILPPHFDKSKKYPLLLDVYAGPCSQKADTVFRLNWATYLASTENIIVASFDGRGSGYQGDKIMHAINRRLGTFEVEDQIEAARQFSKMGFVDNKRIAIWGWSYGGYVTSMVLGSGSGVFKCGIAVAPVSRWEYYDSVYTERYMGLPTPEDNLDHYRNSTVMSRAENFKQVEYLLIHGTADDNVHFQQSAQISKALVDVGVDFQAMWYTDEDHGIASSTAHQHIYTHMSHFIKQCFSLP

Chain of soluble extracellular domain of human dipeptidyl peptidase IV (sDPP-IV; residues 31-766), glycosylated (human) (P27487 31-766 limits assumed): as above

Ki [1]: 4.63 µM | Kd [2]: 3.8 µM
Substance: Diprotin A (Ile-Pro-Ile) (peptide)
